# Measured values from patent US20050074840A1 (published 2005).
# Biological target: T1, human TNF-alpha (hTNF-alpha) (human, UniProt P01375 77-233)
# T1 construct: also called biotinylated hTNF-; [125I]TNF-
# Assay: SPR (BIAcore), TNFrED captured on BAF225 anti-TNFrED surface, TNF-alpha injected at 1-100 nM, global 1:1 fit
# Excerpt: Conditioned media from transient transfections of HEK293-EBNA cells were concentrated with Centricon 10s and the amount of TNFrED protein was quantitated with the R & D Systems ELISA for hTNF R-1. […] Conditioned medium (no TNFrED) and HBS were used as negative controls.
Binder,Kd [nM],koff [s⁻¹],kon [M⁻¹ s⁻¹]
"TNFrED H34P (receptor, Secreted from HEK293-EBNA cells, conditioned medium) DSVCPQGKYIHPQNNSICCTKCPKGTYLYNDCPGPGQDTDCRECESGSFTASENHLRHCLSCSKCRKEMGQVEISSCTVDRDTVCGCRKNQYRHYWSENLFQCFNCSLCLNGTVHLSCQEKQNTVCTCHAGFFLRENECVSCSNCKKSLECTKLCLPQIEN",0.5,0.0009,1.9e+06
"TNFrED S57I (receptor, Secreted from HEK293-EBNA cells, conditioned medium; also called S571) DSVCPQGKYIHPQNNSICCTKCHKGTYLYNDCPGPGQDTDCRECEIGSFTASENHLRHCLSCSKCRKEMGQVEISSCTVDRDTVCGCRKNQYRHYWSENLFQCFNCSLCLNGTVHLSCQEKQNTVCTCHAGFFLRENECVSCSNCKKSLECTKLCLPQIEN",0.5,0.0009,1.9e+06
"TNFrED H34P+S57I (receptor, Secreted from HEK293-EBNA cells, conditioned medium; also called H34P + S571) DSVCPQGKYIHPQNNSICCTKCPKGTYLYNDCPGPGQDTDCRECEIGSFTASENHLRHCLSCSKCRKEMGQVEISSCTVDRDTVCGCRKNQYRHYWSENLFQCFNCSLCLNGTVHLSCQEKQNTVCTCHAGFFLRENECVSCSNCKKSLECTKLCLPQIEN",0.6,0.0012,1.9e+06
"TNFrED H34P+S87P (receptor, Secreted from HEK293-EBNA cells, conditioned medium) DSVCPQGKYIHPQNNSICCTKCPKGTYLYNDCPGPGQDTDCRECESGSFTASENHLRHCLSCSKCRKEMGQVEISPCTVDRDTVCGCRKNQYRHYWSENLFQCFNCSLCLNGTVHLSCQEKQNTVCTCHAGFFLRENECVSCSNCKKSLECTKLCLPQIEN",0.6,0.0012,1.9e+06
"TNFrED S87P (receptor, Secreted from HEK293-EBNA cells, conditioned medium) DSVCPQGKYIHPQNNSICCTKCHKGTYLYNDCPGPGQDTDCRECESGSFTASENHLRHCLSCSKCRKEMGQVEISPCTVDRDTVCGCRKNQYRHYWSENLFQCFNCSLCLNGTVHLSCQEKQNTVCTCHAGFFLRENECVSCSNCKKSLECTKLCLPQIEN",0.6,0.0011,2e+06
"TNFrED H34P+S57I+S87P (receptor, Secreted from HEK293-EBNA cells, conditioned medium; also called H34P + S87P + S571) DSVCPQGKYIHPQNNSICCTKCPKGTYLYNDCPGPGQDTDCRECEIGSFTASENHLRHCLSCSKCRKEMGQVEISPCTVDRDTVCGCRKNQYRHYWSENLFQCFNCSLCLNGTVHLSCQEKQNTVCTCHAGFFLRENECVSCSNCKKSLECTKLCLPQIEN",0.6,0.001,1.8e+06
